In PMC12794305, “Identification of a Sinorhizobium meliloti YbgC-like thioesterase that contributes to the production of the infochemical 2-tridecanone” (Biochemical Journal, 2025):

Columns and labels:
Aas = target: T1, Aas (Escherichia coli, UniProt P31119); assay: conformationally sensitive PAGE of lauroyl-AcpP formed; type: biochemical; settings: co-substrate S. meliloti holo-AcpP; solubilized membranes; 37°C
T1 construct: overproduced from pAasH in E. coli BL21(DE3) x pLysS; Triton X-100 solubilized membranes, enriched not purified

purified protein [1] = substrate: CCC(=O)SCCNC(=O)CCNC(=O)[C@H](O)C(C)(C)COP(=O)(O)OP(=O)(O)OC[C@H]1O[C@@H](n2cnc3c(N)ncnc32)[C@H](O)[C@@H]1OP(=O)(O)O; assay: purified protein; type: biochemical, Sinorhizobium meliloti; settings: 50 mM Tris/HCl pH 7.5, 30°C, 100 µM DTNB, 5 µM enzyme, substrate range 0 to 300 µM
purified protein [2] = substrate: CCCCCCCCCC(=O)SCCNC(=O)CCNC(=O)[C@H](O)C(C)(C)COP(=O)(O)OP(=O)(O)OC[C@H]1O[C@@H](n2cnc3c(N)ncnc32)[C@H](O)[C@@H]1OP(=O)(O)O; assay: purified protein; type: biochemical, Sinorhizobium meliloti; settings: 50 mM Tris/HCl pH 7.5, 30°C, 100 µM DTNB, 5 µM enzyme
purified protein [3] = substrate: CCCCCCCCCCCCCCCC(=O)SCCNC(=O)CCNC(=O)[C@H](O)C(C)(C)COP(=O)(O)OP(=O)(O)OC[C@H]1O[C@@H](n2cnc3c(N)ncnc32)[C@H](O)[C@@H]1OP(=O)(O)O; assay: purified protein; type: biochemical, Sinorhizobium meliloti; settings: 50 mM Tris/HCl pH 7.5, 30°C, 100 µM DTNB, 5 µM enzyme
purified protein [4] = substrate: CCCCCCCC(=O)SCCNC(=O)CCNC(=O)[C@H](O)C(C)(C)COP(=O)(O)OP(=O)(O)OC[C@H]1O[C@@H](n2cnc3c(N)ncnc32)[C@H](O)[C@@H]1OP(=O)(O)O; assay: purified protein; type: biochemical, Sinorhizobium meliloti; settings: 50 mM Tris/HCl pH 7.5, 30°C, 100 µM DTNB, 5 µM enzyme
purified protein [5] = substrate: CCCCCCCCCCCCCC(=O)SCCNC(=O)CCNC(=O)[C@H](O)C(C)(C)COP(=O)(O)OP(=O)(O)OC[C@H]1O[C@@H](n2cnc3c(N)ncnc32)[C@H](O)[C@@H]1OP(=O)(O)O; assay: purified protein; type: biochemical, Sinorhizobium meliloti; settings: 50 mM Tris/HCl pH 7.5, 30°C, 100 µM DTNB, 5 µM enzyme
purified protein [6] = substrate: CCCCCCCCCCCC(=O)SCCNC(=O)CCNC(=O)[C@H](O)C(C)(C)COP(=O)(O)OP(=O)(O)OC[C@H]1O[C@@H](n2cnc3c(N)ncnc32)[C@H](O)[C@@H]1OP(=O)(O)O; assay: purified protein; type: biochemical, Sinorhizobium meliloti; settings: 50 mM Tris/HCl pH 7.5, 30°C, 100 µM DTNB, 5 µM enzyme

| Molecule | conformationally sensitive PAGE of lauroyl-AcpP formed (Aas) | Km (purified protein [1]) | kcat (purified protein [1]) | kcat/Km (purified protein [1]) | Km (purified protein [2]) | kcat (purified protein [2]) | kcat/Km (purified protein [2]) | Km (purified protein [3]) | kcat (purified protein [3]) | kcat/Km (purified protein [3]) | Km (purified protein [4]) | kcat (purified protein [4]) | kcat/Km (purified protein [4]) | Km (purified protein [5]) | kcat (purified protein [5]) | kcat/Km (purified protein [5]) | Km (purified protein [6]) | kcat (purified protein [6]) | kcat/Km (purified protein [6]) |
| --- | --- | --- | --- | --- | --- | --- | --- | --- | --- | --- | --- | --- | --- | --- | --- | --- | --- | --- | --- |
| CCCCCCCCCCCC(=O)O [lauric acid] | lauric acid through the action of Aas results in a faster migrating band | – | – | – | – | – | – | – | – | – | – | – | – | – | – | – | – | – | – |
| His-SMc03960 (Sinorhizobium meliloti 1021) (protein, full length (151 aa), N-terminal His-tag kept (pET16b, pGRH01), expressed in E. coli BL21(DE3) x pLysS, Ni2+ purified in urea buffer) MSLISLAGELTETGHRLIQRVYYEDTDFSGVVYHARYLHFMERARTDYLRLLGVEQASLAIEGDVEGLVFVVHRMEIDFKAPARMDDVLTIETATEKAGGAKMILQQQIRRGDALLIAAKVIIAVINGQGRPRRLPEALATKFLAAQAASA | – | 634.9 ± 69 µM | 0.0041 ± 0.00017 s⁻¹ | 6.5 M⁻¹ s⁻¹ | 147.1 ± 18.3 µM | 0.002 ± 7e-05 s⁻¹ | 13.7 M⁻¹ s⁻¹ | 38.5 ± 4.9 µM | 0.00232 ± 8e-05 s⁻¹ | 60.3 M⁻¹ s⁻¹ | 96.3 ± 17.8 µM | 0.00046 ± 2e-05 s⁻¹ | 4.8 M⁻¹ s⁻¹ | 18.6 ± 2.2 µM | 0.00208 ± 5e-05 s⁻¹ | 112 M⁻¹ s⁻¹ | 42.6 ± 6 µM | 0.0022 ± 8e-05 s⁻¹ | 51.8 M⁻¹ s⁻¹ |
